Here are results for 1 protein from article doi:10.1101/2022.08.12.503774 (bioRxiv, 2022).

This series concerns the molecule itself. Put plainly: cryo-EM structure.

B1: MinCys EAAT3 K269C/W441C crosslinked using Hg2+ (EAAT3-X) (natural protein, human, UniProt P43005 1-524, looked up)
chain: MGKPARKGAEWKRFLKNNWVLLSTVAAVVLGITTGVLVREHSNLSTLEKFYFAFPGEILMRMLKLIILPLIISSMITGVAALDSNVSGKIGLRAVVYYFATTLIAVILGIVLVVSIKPGVTQKVGEIARTGSTPEVSTVDAMLDLIRNMFPENLVQAAFQQYKTKREEVKPPSDPEMTMTEESFTAVMTTAISKTKTKEYKIVGMYSDGINVLGLIVFALVFGLVIGKMGEKGQILVDFFNALSDATMKIVQIIMWYMPLGILFLIAGCIIEVEDWEIFRKLGLYMATVLTGLAIHSIVILPLIYFIVVRKNPFRFAMGMAQALLTALMISSSSATLPVTFRCAEENNQVDKRITRFVLPVGATINMDGTALYEAVAAVFIAQLNDLDLGIGQIITISITATSASIGAAGVPQAGLVTMVIVLSAVGLPAEDVTLIIAVDCLLDRFRTMVNVLGDAFGTGIVEKLSKKELEQMDVSSEVNIVNPFALESTILDNEDSDTKKSYVNGGFAVDKSDTISFTQTSQF
modifications: Hg2+ crosslink between C269 and C441
Take B1: the binding result is on record as “binds”.
